Laboratory results published in publication PMC11870023, “A facile assay for zDHHC palmitoyl transferase activation elucidates effects of mutation and modification” (Journal of Lipid Research, 2025).

Assays:
Experiment in all cases: auto-S-palmitoylation of HEK293 membranes, SDS-PAGE fluorescence normalised to tag Western blot
[1] = substrate: CC(C)(COP(=O)(O)OP(=O)(O)OC[C@H]1O[C@@H](n2cnc3c(N)ncnc32)[C@H](O)[C@@H]1OP(=O)(O)O)[C@@H](O)C(=O)NCCC(=O)NCCSC(=O)CCCCCCCCCCCCCCCNc1ccc([N+](=O)[O-])c2nonc12; assay type: cell-based, Homo sapiens; conditions: pH 7.4, 37 °C, 2 min, labelled compound, covalent thioester at active-site Cys
Source text: auto-S-palmitoylation of HEK293 membranes, SDS-PAGE fluorescence normalised to tag Western blot on human zDHHC14 | A373Y mutation within the N-terminal cytoplasmic tail of zDHHC14 (Fig. 4A) had no effect

[2] = substrate: CC(C)(COP(=O)(O)OP(=O)(O)OC[C@H]1O[C@@H](n2cnc3c(N)ncnc32)[C@H](O)[C@@H]1OP(=O)(O)O)[C@@H](O)C(=O)NCCC(=O)NCCSC(=O)CCCCCCCCCCCCCCCNc1ccc([N+](=O)[O-])c2nonc12; assay type: cell-based, Homo sapiens; conditions: pH 7.4, 37 °C, 2 min, labelled compound, covalent thioester at active-site Cys; remark: listed apart in the source
Source text: auto-S-palmitoylation of HEK293 membranes, SDS-PAGE fluorescence normalised to tag Western blot on human zDHHC14 | L215S mutation within the third transmembrane segment of zDHHC14 (Fig. 4A) substantially diminished auto-S-palmitoylation

[3] = substrate: CC(C)(COP(=O)(O)OP(=O)(O)OC[C@H]1O[C@@H](n2cnc3c(N)ncnc32)[C@H](O)[C@@H]1OP(=O)(O)O)[C@@H](O)C(=O)NCCC(=O)NCCSC(=O)CCCCCCCCCCCCCCCNc1ccc([N+](=O)[O-])c2nonc12; assay type: cell-based, Homo sapiens; conditions: pH 7.4, 37 °C, labelled compound, covalent thioester at active-site Cys
[4] = substrate: CC(C)(COP(=O)(O)OP(=O)(O)OC[C@H]1O[C@@H](n2cnc3c(N)ncnc32)[C@H](O)[C@@H]1OP(=O)(O)O)[C@@H](O)C(=O)NCCC(=O)NCCSC(=O)CCCCCCCCCCCCCCCNc1ccc([N+](=O)[O-])c2nonc12; assay type: cell-based, Homo sapiens; conditions: pH 7.4, 37 °C, 2 min, labelled compound, covalent thioester at active-site Cys; remark: listed apart in the source
Source text: auto-S-palmitoylation of HEK293 membranes, SDS-PAGE fluorescence normalised to tag Western blot on human zDHHC2 | neither S306 F nor M356I mutation of zDHHC2 within the C-terminal cytoplasmic tail

[5] = substrate: CC(C)(COP(=O)(O)OP(=O)(O)OC[C@H]1O[C@@H](n2cnc3c(N)ncnc32)[C@H](O)[C@@H]1OP(=O)(O)O)[C@@H](O)C(=O)NCCC(=O)NCCSC(=O)CCCCCCCCCCCCCCCNc1ccc([N+](=O)[O-])c2nonc12; assay type: biochemical, Mus musculus; conditions: pH 7.4, 37 °C, 2 min, labelled compound, covalent thioester at active-site Cys134

B1: human zDHHC14 (Homo sapiens; A373Y) (protein)
chain: MPPGGGGPMKDCEYSQISTHSSSPMESPHKKKKIAARRKWEVFPGRNKFFCNGRIMMARQTGVFYLTLVLILVTSGLFFAFDCPYLAVKITPAIPAVAGILFFFVMGTLLRTSFSDPGVLPRATPDEAADLERQIDIANGTSSGGYRPPPRTKEVIINGQTVKLKYCFTCKIFRPPRASHCSLCDNCVERFDHHCPWVGNCVGKRNYRFFYMFILSLSFLTVFIFAFVITHVILRSQQTGFLNALKDSPASVLEAVVCFFSVWSIVGLSGFHTYLISSNQTTNEDIKGSWSNKRGKENYNPYSYGNIFTNCCVALCGPISPSLIDRRGYIQPDTPQPAAPSNGITMYGATQSQSDMCDQDQCIQSTKFVLQAYATPLLQSEPSLTSDELHLPGKPGLGTPCASLTLGPPTPPASMPNLAEATLADVMPRKDEHMGHQFLTPDEAPSPPRLLAAGSPLAHSRTMHVLGLASQDSLHEDSVRGLVKLSSV
notes: full length, His6-Myc tag kept (pCEpuro-His6-Myc-1), HEK293 membrane fraction
[1]
  Km: 1.72 ± 0.50 µM

B2: human zDHHC14 (Homo sapiens; L215S) (protein)
chain: MPPGGGGPMKDCEYSQISTHSSSPMESPHKKKKIAARRKWEVFPGRNKFFCNGRIMMARQTGVFYLTLVLILVTSGLFFAFDCPYLAVKITPAIPAVAGILFFFVMGTLLRTSFSDPGVLPRATPDEAADLERQIDIANGTSSGGYRPPPRTKEVIINGQTVKLKYCFTCKIFRPPRASHCSLCDNCVERFDHHCPWVGNCVGKRNYRFFYMFISSLSFLTVFIFAFVITHVILRSQQTGFLNALKDSPASVLEAVVCFFSVWSIVGLSGFHTYLISSNQTTNEDIKGSWSNKRGKENYNPYSYGNIFTNCCVALCGPISPSLIDRRGYIQPDTPQPAAPSNGITMYGATQSQSDMCDQDQCIQSTKFVLQAAATPLLQSEPSLTSDELHLPGKPGLGTPCASLTLGPPTPPASMPNLAEATLADVMPRKDEHMGHQFLTPDEAPSPPRLLAAGSPLAHSRTMHVLGLASQDSLHEDSVRGLVKLSSV
notes: as for B1
[2]
  Km: 4.46 ± 2.66 µM

B3: human zDHHC4 (Homo sapiens) (protein)
chain: MDFLVLFLFYLASVLMGLVLICVCSKTHSLKGLARGGAQIFSCIIPECLQRAVHGLLHYLFHTRNHTFIVLHLVLQGMVYTEYTWEVFGYCQELELSLHYLLLPYLLLGVNLFFFTLTCGTNPGIITKANELLFLHVYEFDEVMFPKNVRCSTCDLRKPARSKHCSVCNWCVHRFDHHCVWVNNCIGAWNIRYFLIYVLTLTASAATVAIVSTTFLVHLVVMSDLYQETYIDDLGHLHVMDTVFLIQYLFLTFPRIVFMLGFVVVLSFLLGGYLLFVLYLAATNQTTNEWYRGDWAWCQRCPLVAWPPSAEPQVHRNIHSHGLRSNLQEIFLPAFPCHERKKQE
notes: as for B1
[3]; 5 min
  Km: 9.68 ± 2.34 µM

B4: human zDHHC2 (Homo sapiens; S306F) (protein)
chain: MAPSGPGSSARRRCRRVLYWIPVVFITLLLGWSYYAYAIQLCIVSMENTGEQVVCLMAYHLLFAMFVWSYWKTIFTLPMNPSKEFHLSYAEKDLLEREPRGEAHQEVLRRAAKDLPIYTRTMSGAIRYCDRCQLIKPDRCHHCSVCDKCILKMDHHCPWVNNCVGFSNYKFFLLFLAYSLLYCLFIAATDLQYFIKFWTNGLPDTQAKFHIMFLFFAAAMFSVSLSSLFGYHCWLVSKNKSTLEAFRSPVFRHGTDKNGFSLGFSKNMRQVFGDEKKYWLLPIFSSLGDGCSFPTCLVNQDPEQAFTPAGLNSTAKNLENHQFPAKPLRESQSHLLTDSQSWTESSINPGKCKAGMSNPALTMENET
notes: as for B1
[4]
  Km: 3.36 ± 0.73 µM

B5: human zDHHC2 (Homo sapiens) (protein)
chain: MAPSGPGSSARRRCRRVLYWIPVVFITLLLGWSYYAYAIQLCIVSMENTGEQVVCLMAYHLLFAMFVWSYWKTIFTLPMNPSKEFHLSYAEKDLLEREPRGEAHQEVLRRAAKDLPIYTRTMSGAIRYCDRCQLIKPDRCHHCSVCDKCILKMDHHCPWVNNCVGFSNYKFFLLFLAYSLLYCLFIAATDLQYFIKFWTNGLPDTQAKFHIMFLFFAAAMFSVSLSSLFGYHCWLVSKNKSTLEAFRSPVFRHGTDKNGFSLGFSKNMRQVFGDEKKYWLLPIFSSLGDGCSFPTCLVNQDPEQASTPAGLNSTAKNLENHQFPAKPLRESQSHLLTDSQSWTESSINPGKCKAGMSNPALTMENET
notes: as for B1
[3]; 2 min
  Km: 4.46 ± 0.49 µM

B6: human zDHHC2 (Homo sapiens; M356I) (protein)
chain: MAPSGPGSSARRRCRRVLYWIPVVFITLLLGWSYYAYAIQLCIVSMENTGEQVVCLMAYHLLFAMFVWSYWKTIFTLPMNPSKEFHLSYAEKDLLEREPRGEAHQEVLRRAAKDLPIYTRTMSGAIRYCDRCQLIKPDRCHHCSVCDKCILKMDHHCPWVNNCVGFSNYKFFLLFLAYSLLYCLFIAATDLQYFIKFWTNGLPDTQAKFHIMFLFFAAAMFSVSLSSLFGYHCWLVSKNKSTLEAFRSPVFRHGTDKNGFSLGFSKNMRQVFGDEKKYWLLPIFSSLGDGCSFPTCLVNQDPEQASTPAGLNSTAKNLENHQFPAKPLRESQSHLLTDSQSWTESSINPGKCKAGISNPALTMENET
notes: as for B1
[4]
  Km: 4.59 ± 0.89 µM

B7: HA-tagged mouse zDHHC5 (Mus musculus) (protein)
chain: MPAESGKRFKPSKYVPVSAAAIFLVGATTLFFAFTCPGLSLNVSPAVPIYNAIMFLFVLANFSMATFMDPGIFPRAEEDEDKEDDFRAPLYKTVEIKGIQVRMKWCATCRFYRPPRCSHCSVCDNCVEEFDHHCPWVNNCIGRRNYRYFFLFLLSLTAHIMGVFGFGLLYVLYHIEELSGVRTAVTMAVMCVAGLFFIPVAGLTGFHVVLVARGRTTNEQVTGKFRGGVNPFTNGCCNNVSRVLCSSPAPRYLGRPKKEKTIVIRPPFLRPEVSDGQITVKIMDNGIQGELRRTKSKGSLEITESQSADAEPPPPPKPDLSRYTGLRTHLSLATNEDSSLLGKDSPPTPTMYKYRPGYSSSSTSAAMPHSSSAKLSRGDSLKEPTSIADSSRHPSYRSEPSLEPESFRSPTFGKSFHFDPLSSGSRSSSLKSAQGTGFELGQLQSIRSEGTTSTSYKSLANQTRNGSLSYDSLLTPSDSPDFESVQAGPEPDPPLGYTSPFLSARLAQQREAERHPRLLPTGPPHREPSPVRYDNLSRHIVASLQEREKLLRQSPPLAGREEEPGLGDSGIQSTPGSGHAPRTSSSSDDSKRSPLSKTPLGRPAVPRFGKPDGLRSRGLGSPEPGTTAPYLGRSISYSSQKAPSGVSETEEVALQPLLTPKDEVQLKTTYSKSNGQPKSIGSASPGPGQPPLSSPTRGGVKKVSGVGGTTYEISV
notes: full length, HA tag kept (pEF-Bos-HA), overexpressed in HEK293 cells, native membrane fraction; 78 kDa band
[5]
  Km: 3.59 ± 0.29 µM

B8: HA-tagged mouse zDHHC5 (Mus musculus; C236S/C237S/C245S) (protein)
chain: MPAESGKRFKPSKYVPVSAAAIFLVGATTLFFAFTCPGLSLNVSPAVPIYNAIMFLFVLANFSMATFMDPGIFPRAEEDEDKEDDFRAPLYKTVEIKGIQVRMKWCATCRFYRPPRCSHCSVCDNCVEEFDHHCPWVNNCIGRRNYRYFFLFLLSLTAHIMGVFGFGLLYVLYHIEELSGVRTAVTMAVMCVAGLFFIPVAGLTGFHVVLVARGRTTNEQVTGKFRGGVNPFTNGSSNNVSRVLSSSPAPRYLGRPKKEKTIVIRPPFLRPEVSDGQITVKIMDNGIQGELRRTKSKGSLEITESQSADAEPPPPPKPDLSRYTGLRTHLSLATNEDSSLLGKDSPPTPTMYKYRPGYSSSSTSAAMPHSSSAKLSRGDSLKEPTSIADSSRHPSYRSEPSLEPESFRSPTFGKSFHFDPLSSGSRSSSLKSAQGTGFELGQLQSIRSEGTTSTSYKSLANQTRNGSLSYDSLLTPSDSPDFESVQAGPEPDPPLGYTSPFLSARLAQQREAERHPRLLPTGPPHREPSPVRYDNLSRHIVASLQEREKLLRQSPPLAGREEEPGLGDSGIQSTPGSGHAPRTSSSSDDSKRSPLSKTPLGRPAVPRFGKPDGLRSRGLGSPEPGTTAPYLGRSISYSSQKAPSGVSETEEVALQPLLTPKDEVQLKTTYSKSNGQPKSIGSASPGPGQPPLSSPTRGGVKKVSGVGGTTYEISV
notes: as for B7
[5]
  Km: 17.95 ± 11.12 µM
